Results on four molecules are retold here after patent US12551583B2, “Radiolabeled ligands for targeted PET/SPECT imaging and methods of their use” (MEMORIAL SLOAN KETTERING CANCER CENTER, priority 2016, dated 2026).

This data set deals with 4T1 orthotopic tumor-bearing BALB/c mice. The data set can be described thus: in vivo. As to conditions: mouse; for biodistribution, Tumor (4T1 tumoral uptake) / biodistribution, Blood / biodistribution, Bone / biodistribution, Brain / biodistribution, Heart / biodistribution, Kidneys / biodistribution, L. intestine / biodistribution, Liver / biodistribution, Lungs / biodistribution, Muscle / biodistribution, Pancreas / biodistribution, S. intestine / biodistribution, Skin / biodistribution, Spleen / biodistribution, Stomach: iv, 4 h. As for the experimental part:
4T1 orthotopic BALB/c mouse model. The cells were removed from the flasks, concentrated, and resuspended in minimal media for cell counting. The cells were then diluted to contain approximately 1 million cells in 30 μL of media (for orthotopic allografts). Following an MSKCC Institutional Animal Care and Use Committee approved protocol, 8-10 week old BALB/c mice (Charles River Laboratories, Wilmington, MA) were surgically implanted with one million 4T1 cancer cells into the first or the last mammary fat pad of the right side of the animal using aseptic surgical techniques and sterile staple closures while the mice were under anesthetic. Additionally, mice were given injections of meloxicam (24 h pain killer) in the scruff and bupivacaine intradermally prior to surgical incisions. One day post surgery, the mice were again given meloxicam and checked to ensure that the closure was healing. Two and three days post surgery, the mice were checked to ensure that the animals were healthy and recovering well from the surgery. Five to seven days post surgery, the staples were removed. Five to nine days post surgery, the mice were injected with 50-75 μCi (0.9-0.4 nmol) of the respective radiopharmaceutical for in vivo biodistribution or 500-600 μCi (9-11 nmol) for in vivo imaging. The mice receiving ^64Cu-NOTA-pHLIP were sacrificed at 1, 2, 4, 12, 24, 36, and 48 h; the mice receiving [^18F]—AlF-NOTA-pHLIP were sacrificed at 0.5, 1, 2, 4, 6 and 8 h. The 4T1 tumors in this study were purposely used 5-9 days after inoculation to ensure lower tumoral pH. Animal models. Animal studies were conducted according to MSKCC IACUC-approved animal protocol. 4T1 (orthotopic breast cancer allografts of 1×10^6 cells surgically implanted in the mammary fat pad) and B16-F10 (orthotopic melanoma allografts of 1×10^5 cells injected intradermally on the shoulder) tumors were orthotopically inoculated in media in female BALB/c and C57Bl/6 mice (Charles River Laboratories (CRL)), respectively. Additionally, PC3 (3×10^6 cells) or LNCaP (3-6×10^6 cells) tumors were subcutaneously xenografted on the shoulder of athymic nude male mice (CRL). Mice were used once tumor volumes were approximately 90-300 mm^3. In vivo animal PET imaging and biodistribution. Mice were injected with radiolabeled NOTA-pHLIP derivatives i.v. (500-700 μCi/mouse for PET or SPECT imaging studies and 25-100 μCi/mouse for biodistribution studies). All injections were less than 200 μL with <10% EtOH in sterile PBS. PET images were obtained with the mice under anesthesia in an Inveon PET-CT or microPET Focus 120 (Siemens) at 0.5-48 h p.i. All images were analyzed using ASIPro VM (Concorde Microsystems). SPECT images were obtained with the mice under anesthesia in a NanoSPECT/CT Plus at 4-24 h p.i. All SPECT images were reconstructed using HiSPECT and analyzed using InVivoScope. Dissections for ex vivo biodistribution were performed on mice after CO2 asphyxiation or cervical dislocation while anesthetized at reported time points. Weight of the syringe prior to injection and after injection was used to determine the mass of injectate. Activity of the syringe prior to injection and after injection was used to determine the percent of injectate administered. The mass injected was corrected by the percent of radioactivity injected. Four to five aliquots (10 μL) were weighed and counted as internal standards for each study. All of the collected organs were counted using an automatic gamma counter (Wizard 3″, PerkinElmer, Waltham, MA). The total injected dose was found as the mass injected dose×fraction radioactivity injected×internal standard average counts/g. The percent injected dose (% ID) was determined as the counts for the tissue×100/total injected dose. The % ID/g was calculated as the % ID/tissue weight. The average and standard deviation of the % ID and % ID/g was determined using normal methods (n−1) for each set of mice.

Consider `CC(C)C[C@@H](NC(=O)[C@@H](CC(C)C)NC(=O)[C@@H](CC(=O)O)NC(=O)[C@@H](CC(C)C)NC(=O)[C@@H](CC(C)C)NC(=O)[C@@H](CC(C)C)NC(=O)[C@H](NC(=O)[C@@H](CC(=O)O)NC(=O)[C@H](NC(=O)[C@H]1CCCN1C(=O)[C@@H](Cc1ccccc1)NC(=O)[C@@H](CC(C)C)NC(=O)[C@@H](CC(C)C)NC(=O)[C@@H](CC(=O)O)NC(=O)[C@@H](CC(C)C)NC(=O)[C@@H](Cc1ccc(O)cc1)NC(=O)[C@@H](C)NC(=O)[C@@H](CCCNC(=N)N)NC(=O)[C@@H](Cc1c[nH]c2ccccc12)NC(=O)[C@H]1CCCN1C(=O)[C@@H](CC(N)=O)NC(=O)[C@@H](CCC(N)=O)NC(=O)[C@@H](CC(=O)O)NC(=O)[C@@H](CC(=O)O)NC(=O)[C@@H](CSC1CC(=O)N(CCNC(=O)CN2CCN(CC(=O)O)CCN(CC(=O)O)CC2)C1=O)NC(=O)[C@@H](C)N)[C@H](C)O)[C@H](C)O)C(=O)N[C@H](Cc1c[nH]c2ccccc12)C(=O)O` (single isomer, unassigned) [^68Ga-NO2A-cysVar3, metal not drawn], for which, for the setting “female, BALB/c”, the “biodistribution, Tumor (4T1 tumoral uptake)” value (“biodistribution, Tumor” below) came to 6±2 % ID/g.
Regarding `CC(C)C[C@@H](NC(=O)[C@@H](CC(C)C)NC(=O)[C@@H](CC(=O)O)NC(=O)[C@@H](CC(C)C)NC(=O)[C@@H](CC(C)C)NC(=O)[C@@H](CC(C)C)NC(=O)[C@H](NC(=O)[C@@H](CC(=O)O)NC(=O)[C@H](NC(=O)[C@H]1CCCN1C(=O)[C@@H](Cc1ccccc1)NC(=O)[C@@H](CC(C)C)NC(=O)[C@@H](CC(C)C)NC(=O)[C@@H](CC(=O)O)NC(=O)[C@@H](CC(C)C)NC(=O)[C@@H](Cc1ccc(O)cc1)NC(=O)[C@@H](C)NC(=O)[C@@H](CCCNC(=N)N)NC(=O)[C@@H](Cc1c[nH]c2ccccc12)NC(=O)[C@H]1CCCN1C(=O)[C@@H](CC(N)=O)NC(=O)[C@@H](CCC(N)=O)NC(=O)[C@@H](CC(=O)O)NC(=O)[C@@H](CC(=O)O)NC(=O)[C@@H](CS)NC(=O)[C@@H](C)NC(=S)Nc1ccc(CC2CN(CC(=O)O)CCN(CC(=O)O)CCN2CC(=O)O)cc1)[C@H](C)O)[C@H](C)O)C(=O)N[C@H](Cc1c[nH]c2ccccc12)C(=O)O` (single isomer, unassigned) [[^18F]—AlF-NOTA-Var3], the kidneys-to-large intestine ratio is on record as 0.52±0.15; the “biodistribution, Blood” value amounted to 2.201 ± 0.374 % ID/g; the “biodistribution, Bone” value is given as 0.540 ± 0.119 % ID/g; the “biodistribution, Brain” value amounted to 0.107 ± 0.023 % ID/g. Also, the “biodistribution, Heart” value turned out to be 0.78 ± 0.08 % ID/g; the “biodistribution, Kidneys” value is given as 8.237 ± 1.106 % ID/g; the “biodistribution, L. intestine” value is 22.05 ± 2.46 % ID/g; the “biodistribution, Liver” value stood at 0.923 ± 0.153 % ID/g. For the same molecule, the “biodistribution, Lungs” value is 2.217 ± 0.380 % ID/g; the “biodistribution, Muscle” value was 0.282 ± 0.055 % ID/g; the “biodistribution, Pancreas” value is 0.332 ± 0.020 % ID/g; the “biodistribution, S. intestine” value was 0.927 ± 0.152 % ID/g. For the same molecule, the “biodistribution, Skin” value turned out to be 1.126 ± 0.115 % ID/g; the “biodistribution, Spleen” value is on record as 0.469 ± 0.093 % ID/g; the “biodistribution, Stomach” value worked out at 0.482 ± 0.223 % ID/g; the “biodistribution, Tumor” value was 0.923 ± 0.119 % ID/g.
For the molecule `CC(C)C[C@@H](NC(=O)[C@@H](CCC(=O)O)NC(=O)[C@@H](CC(C)C)NC(=O)[C@@H](CC(C)C)NC(=O)[C@@H](CC(C)C)NC(=O)[C@H](NC(=O)[C@@H](CCC(=O)O)NC(=O)[C@H](NC(=O)[C@H]1CCCN1C(=O)[C@@H](Cc1ccccc1)NC(=O)[C@@H](CC(C)C)NC(=O)[C@@H](Cc1c[nH]c2ccccc12)NC(=O)[C@@H](CCC(=O)O)NC(=O)[C@@H](CC(C)C)NC(=O)[C@@H](Cc1ccc(O)cc1)NC(=O)[C@@H](CCCNC(=N)N)NC(=O)[C@@H](C)NC(=O)[C@@H](Cc1c[nH]c2ccccc12)NC(=O)[C@H]1CCCN1C(=O)[C@@H](CC(N)=O)NC(=O)[C@@H](CCC(N)=O)NC(=O)[C@@H](CCC(=O)O)NC(=O)[C@@H](CCC(=O)O)NC(=O)[C@@H](CSC1CC(=O)N(CCNC(=O)CN2CCN(CC(=O)O)CCN(CC(=O)O)CC2)C1=O)NC(=O)[C@@H](C)N)[C@H](C)O)[C@H](C)O)C(=O)O` (single isomer, unassigned) [^64Cu-NO2A-cysVar7, metal not drawn], the “biodistribution, Blood” value is reported as 2.31 ± 0.18 % ID/g; the “biodistribution, Bone” value is on record as 1.57 ± 0.18 % ID/g; the “biodistribution, Brain” value is 0.25 ± 0.02 % ID/g; the “biodistribution, Heart” value was found to be 2.68 ± 0.33 % ID/g. Further, the “biodistribution, Kidneys” value is reported as 95.5 ± 11.9 % ID/g; the “biodistribution, L. intestine” value is given as 8.19 ± 0.85 % ID/g; the “biodistribution, Liver” value turned out to be 15.6 ± 1.58 % ID/g; the “biodistribution, Lungs” value is reported as 4.21 ± 0.23 % ID/g. Moreover, the “biodistribution, Muscle” value amounted to 0.64 ± 0.07 % ID/g; the “biodistribution, Pancreas” value is 1.84 ± 0.10 % ID/g; the “biodistribution, S. intestine” value amounted to 6.37 ± 0.11 % ID/g; the “biodistribution, Skin” value amounted to 2.59 ± 0.05 % ID/g. For the same molecule, the “biodistribution, Spleen” value is given as 3.31 ± 0.24 % ID/g; the “biodistribution, Stomach” value is given as 3.33 ± 0.31 % ID/g; the “biodistribution, Tumor” value came out at 9.07 ± 1.81 % ID/g.
Take `CC(C)C[C@@H](NC(=O)[C@@H](CC(C)C)NC(=O)[C@@H](CC(=O)O)NC(=O)[C@@H](CC(C)C)NC(=O)[C@@H](CC(C)C)NC(=O)[C@@H](CC(C)C)NC(=O)[C@H](NC(=O)[C@@H](CC(=O)O)NC(=O)[C@H](NC(=O)[C@H]1CCCN1C(=O)[C@@H](Cc1ccccc1)NC(=O)[C@@H](CC(C)C)NC(=O)[C@@H](CC(C)C)NC(=O)[C@@H](CC(=O)O)NC(=O)[C@@H](CC(C)C)NC(=O)[C@@H](Cc1ccc(O)cc1)NC(=O)[C@@H](C)NC(=O)[C@@H](CCCNC(=N)N)NC(=O)[C@@H](Cc1c[nH]c2ccccc12)NC(=O)[C@H]1CCCN1C(=O)[C@@H](CC(N)=O)NC(=O)[C@@H](CCC(N)=O)NC(=O)[C@@H](CC(=O)O)NC(=O)[C@@H](CC(=O)O)NC(=O)[C@@H](CS)NC(=O)[C@@H](C)NC(=S)Nc1ccc(CC2CN(CC(=O)O)CCN(CC(=O)O)CCN2CC(=O)O)cc1)[C@H](C)O)[C@H](C)O)C(=O)N[C@H](Cc1c[nH]c2ccccc12)C(=O)O` (single isomer, unassigned) [^64Cu-NOTA-Var3, metal not drawn]: the “biodistribution, Blood” value was found to be 1.371 ± 0.244 % ID/g; the “biodistribution, Bone” value is 0.339 ± 0.018 % ID/g; the “biodistribution, Brain” value stood at 0.063 ± 0.011 % ID/g; the “biodistribution, Heart” value was determined as 0.49 ± 0.05 % ID/g. Moreover, the “biodistribution, Kidneys” value is reported as 7.165 ± 1.126 % ID/g; the “biodistribution, L. intestine” value is given as 7.45 ± 2.73 % ID/g; the “biodistribution, Liver” value was 1.034 ± 0.150 % ID/g; the “biodistribution, Lungs” value was determined as 1.420 ± 0.117 % ID/g. Moreover, the “biodistribution, Muscle” value is recorded as 0.171 ± 0.017 % ID/g; the “biodistribution, Pancreas” value was found to be 0.279 ± 0.041 % ID/g; the “biodistribution, S. intestine” value amounted to 0.320 ± 0.042 % ID/g; the “biodistribution, Skin” value stood at 0.775 ± 0.102 % ID/g. In addition, the “biodistribution, Spleen” value was 0.340 ± 0.032 % ID/g; the “biodistribution, Stomach” value is given as 0.194 ± 0.050 % ID/g; the “biodistribution, Tumor” value is 0.649 ± 0.091 % ID/g.
